Key:
[1] = target: T1, prostate specific membrane antigen (PSMA) (UniProt Q04609 1-750, limits assumed); test: cell-based or functional assay
[2] = target: T1, prostate specific membrane antigen …; test: FACS, HEK293 supernatants on LnCap cells expressing PSMA
From the text: Example 2: Antibody Humanization-Parental mouse J591 (Liu et al., Cancer Research, 57, […], 1997) antibody was humanized by selecting human frameworks based on sequence identity with the mouse framework sequence. The light chain and heavy chain CDRs from the mouse antibody were grafted onto the human frameworks, respectively, and analyzed for binding to PSMA antigen. Humanized variants were generated by pairing four human heavy chain frameworks with six light chain frameworks. The variants were expressed transiently in HEK293 cells and the supernatants were tested for binding to the PSMA antigen expressed in LnCap cells by FACS. Table 4 describes a selected heavy chain variable region sequence and 4 light chain variable region sequences used for further studies. […] ID Nos: 8 and the light chain sequence of SEQ. […] ID Nos: 10 and the light chain sequence of SEQ. […] ID Nos: 12 and the light chain sequence of SEQ. […] ID Nos: 14 and the light chain sequence of SEQ. ID Nos: 15.

T1 sequence (Q04609 whole entry): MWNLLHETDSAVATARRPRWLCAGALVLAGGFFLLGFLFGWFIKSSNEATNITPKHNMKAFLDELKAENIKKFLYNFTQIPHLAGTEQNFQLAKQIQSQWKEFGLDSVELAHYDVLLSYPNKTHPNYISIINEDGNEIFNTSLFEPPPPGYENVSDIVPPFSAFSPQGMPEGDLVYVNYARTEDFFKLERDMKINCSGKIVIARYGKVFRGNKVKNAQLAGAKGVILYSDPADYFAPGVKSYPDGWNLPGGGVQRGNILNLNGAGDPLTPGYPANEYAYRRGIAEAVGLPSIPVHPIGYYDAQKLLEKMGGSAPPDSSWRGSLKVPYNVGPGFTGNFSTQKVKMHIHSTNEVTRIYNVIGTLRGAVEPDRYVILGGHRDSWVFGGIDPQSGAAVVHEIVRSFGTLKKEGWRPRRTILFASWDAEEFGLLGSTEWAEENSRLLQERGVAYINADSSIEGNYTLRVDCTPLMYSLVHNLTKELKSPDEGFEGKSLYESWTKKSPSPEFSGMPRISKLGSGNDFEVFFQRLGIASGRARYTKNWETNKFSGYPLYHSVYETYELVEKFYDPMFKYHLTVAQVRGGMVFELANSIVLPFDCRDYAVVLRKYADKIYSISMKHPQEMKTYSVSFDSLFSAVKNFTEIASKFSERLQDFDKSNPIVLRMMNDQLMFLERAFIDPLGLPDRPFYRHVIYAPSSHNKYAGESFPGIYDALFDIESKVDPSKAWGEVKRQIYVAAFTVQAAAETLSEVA

| Binder | Cell Killing (%), C4-2 cell line [1] [%] | IC50 (nM), in vitro cell killing in C4-2 cell line (Cell Titer Glo, 96 h) [1] [nM] | binding result [2] |
| --- | --- | --- | --- |
| Humanized Anti-PSMA Antibody Variant 1 ADC, MMAE payload, Non-Cleavable (PEG3) linker (antibody, human IgG1, kappa, V domains shown, para-acetyl phenylalanine (pAF) at position A114 (Kabat numbering; first residue of the heavy chain constant region), conjugated to non-cleavable (PEG3) MMAE drug-linker) VH: QVQLVQSGAEVKKPGASVKVSCKASGYTFTEYTIHWVRQAPGQRLEWMGNINPNNGGTTYNQKFEDRVTITRDTSASTAYMELSSLRSEDTAVYYCAAGWNFDYWGQGTTLTVSS VL: DIQLTQSPSFLSASVGDRVTITCKASQDVGTAVDWYQQKPGKAPKLLIYWASTRHTGVPSRFSGSGSGTEFTLTISSLQPEDFATYYCQQYNSYPLTFGGGTKVEIKR | 64.5 | 11.3 | – |
| Humanized Anti-PSMA Antibody Variant 1 ADC, MMAF payload, Short Cleavable (Valine-Citruline-Acetyl) linker (antibody, human IgG1, kappa, V domains shown, para-acetyl phenylalanine (pAF) at position A114 (Kabat numbering; first residue of the heavy chain constant region), conjugated to short cleavable (Valine-Citruline-Acetyl) MMAF drug-linker) VH: QVQLVQSGAEVKKPGASVKVSCKASGYTFTEYTIHWVRQAPGQRLEWMGNINPNNGGTTYNQKFEDRVTITRDTSASTAYMELSSLRSEDTAVYYCAAGWNFDYWGQGTTLTVSS VL: DIQLTQSPSFLSASVGDRVTITCKASQDVGTAVDWYQQKPGKAPKLLIYWASTRHTGVPSRFSGSGSGTEFTLTISSLQPEDFATYYCQQYNSYPLTFGGGTKVEIKR | 92 | 0.064 | – |
| Humanized Anti-PSMA Antibody Variant 2 ADC, MMAF payload, Cleavable (Val-Citruline-PEG1) linker (antibody, human IgG1, kappa, V domains shown, para-acetyl phenylalanine (pAF) at position A114 (Kabat numbering; first residue of the heavy chain constant region), conjugated to cleavable (Val-Citruline-PEG1) MMAF drug-linker) VH: QVQLVQSGAEVKKPGASVKVSCKASGYTFTEYTIHWVRQAPGQRLEWMGNINPNNGGTTYNQKFEDRVTITRDTSASTAYMELSSLRSEDTAVYYCAAGWNFDYWGQGTTLTVSS VL: DIQLTQSPSFLSASVGDRVTITCKASQDVGTAVDWYQQKPGKAPKLLIYWASTRHTGVPSRFSGSGSGTEFTLTISSLQSEDFATYYCQQYNSYPLTFGGGTKVEIKR | 91 | 0.051 | – |
| Humanized Anti-PSMA Antibody Variant 1 ADC, MMAF payload, Non-Cleavable (PEG3) linker (antibody, human IgG1, kappa, V domains shown, para-acetyl phenylalanine (pAF) at position A114 (Kabat numbering; first residue of the heavy chain constant region), conjugated to non-cleavable (PEG3) MMAF drug-linker) VH: QVQLVQSGAEVKKPGASVKVSCKASGYTFTEYTIHWVRQAPGQRLEWMGNINPNNGGTTYNQKFEDRVTITRDTSASTAYMELSSLRSEDTAVYYCAAGWNFDYWGQGTTLTVSS VL: DIQLTQSPSFLSASVGDRVTITCKASQDVGTAVDWYQQKPGKAPKLLIYWASTRHTGVPSRFSGSGSGTEFTLTISSLQPEDFATYYCQQYNSYPLTFGGGTKVEIKR | 80.5 | 0.543 | – |
| Humanized Anti-PSMA Antibody Variant 1 ADC, MMAE payload, Short Cleavable (Valine-Citruline-Acetyl) linker (antibody, human IgG1, kappa, V domains shown, para-acetyl phenylalanine (pAF) at position A114 (Kabat numbering; first residue of the heavy chain constant region), conjugated to short cleavable (Valine-Citruline-Acetyl) MMAE drug-linker) VH: QVQLVQSGAEVKKPGASVKVSCKASGYTFTEYTIHWVRQAPGQRLEWMGNINPNNGGTTYNQKFEDRVTITRDTSASTAYMELSSLRSEDTAVYYCAAGWNFDYWGQGTTLTVSS VL: DIQLTQSPSFLSASVGDRVTITCKASQDVGTAVDWYQQKPGKAPKLLIYWASTRHTGVPSRFSGSGSGTEFTLTISSLQPEDFATYYCQQYNSYPLTFGGGTKVEIKR | 81.5 | 0.542 | – |
| Humanized Anti-PSMA Antibody Variant 1 ADC, MMAF payload, Cleavable (Val-Citruline-PEG1) linker (antibody, human IgG1, kappa, V domains shown, para-acetyl phenylalanine (pAF) at position A114 (Kabat numbering; first residue of the heavy chain constant region), conjugated to cleavable (Val-Citruline-PEG1) MMAF drug-linker) VH: QVQLVQSGAEVKKPGASVKVSCKASGYTFTEYTIHWVRQAPGQRLEWMGNINPNNGGTTYNQKFEDRVTITRDTSASTAYMELSSLRSEDTAVYYCAAGWNFDYWGQGTTLTVSS VL: DIQLTQSPSFLSASVGDRVTITCKASQDVGTAVDWYQQKPGKAPKLLIYWASTRHTGVPSRFSGSGSGTEFTLTISSLQPEDFATYYCQQYNSYPLTFGGGTKVEIKR | 91 | 0.066 | – |
| Humanized Anti-PSMA Antibody Variant 2 ADC, MMAF payload, Non-Cleavable (PEG3) linker (antibody, human IgG1, kappa, V domains shown, para-acetyl phenylalanine (pAF) at position A114 (Kabat numbering; first residue of the heavy chain constant region), conjugated to non-cleavable (PEG3) MMAF drug-linker) VH: QVQLVQSGAEVKKPGASVKVSCKASGYTFTEYTIHWVRQAPGQRLEWMGNINPNNGGTTYNQKFEDRVTITRDTSASTAYMELSSLRSEDTAVYYCAAGWNFDYWGQGTTLTVSS VL: DIQLTQSPSFLSASVGDRVTITCKASQDVGTAVDWYQQKPGKAPKLLIYWASTRHTGVPSRFSGSGSGTEFTLTISSLQSEDFATYYCQQYNSYPLTFGGGTKVEIKR | 81 | 0.503 | – |
| Humanized Anti-PSMA Antibody Variant 2 ADC, MMAE payload, Short Cleavable (Valine-Citruline-Acetyl) linker (antibody, human IgG1, kappa, V domains shown, para-acetyl phenylalanine (pAF) at position A114 (Kabat numbering; first residue of the heavy chain constant region), conjugated to short cleavable (Valine-Citruline-Acetyl) MMAE drug-linker) VH: QVQLVQSGAEVKKPGASVKVSCKASGYTFTEYTIHWVRQAPGQRLEWMGNINPNNGGTTYNQKFEDRVTITRDTSASTAYMELSSLRSEDTAVYYCAAGWNFDYWGQGTTLTVSS VL: DIQLTQSPSFLSASVGDRVTITCKASQDVGTAVDWYQQKPGKAPKLLIYWASTRHTGVPSRFSGSGSGTEFTLTISSLQSEDFATYYCQQYNSYPLTFGGGTKVEIKR | 81.5 | 0.52 | – |
| Humanized Anti-PSMA Antibody Variant 2 ADC, MMAE payload, Non-Cleavable (PEG3) linker (antibody, human IgG1, kappa, V domains shown, para-acetyl phenylalanine (pAF) at position A114 (Kabat numbering; first residue of the heavy chain constant region), conjugated to non-cleavable (PEG3) MMAE drug-linker) VH: QVQLVQSGAEVKKPGASVKVSCKASGYTFTEYTIHWVRQAPGQRLEWMGNINPNNGGTTYNQKFEDRVTITRDTSASTAYMELSSLRSEDTAVYYCAAGWNFDYWGQGTTLTVSS VL: DIQLTQSPSFLSASVGDRVTITCKASQDVGTAVDWYQQKPGKAPKLLIYWASTRHTGVPSRFSGSGSGTEFTLTISSLQSEDFATYYCQQYNSYPLTFGGGTKVEIKR | 67 | 12.5 | – |
| Humanized Anti-PSMA Antibody Variant 2 ADC, MMAF payload, Short Cleavable (Valine-Citruline-Acetyl) linker (antibody, human IgG1, kappa, V domains shown, para-acetyl phenylalanine (pAF) at position A114 (Kabat numbering; first residue of the heavy chain constant region), conjugated to short cleavable (Valine-Citruline-Acetyl) MMAF drug-linker) VH: QVQLVQSGAEVKKPGASVKVSCKASGYTFTEYTIHWVRQAPGQRLEWMGNINPNNGGTTYNQKFEDRVTITRDTSASTAYMELSSLRSEDTAVYYCAAGWNFDYWGQGTTLTVSS VL: DIQLTQSPSFLSASVGDRVTITCKASQDVGTAVDWYQQKPGKAPKLLIYWASTRHTGVPSRFSGSGSGTEFTLTISSLQSEDFATYYCQQYNSYPLTFGGGTKVEIKR | 91 | 0.053 | – |
| Humanized Anti-PSMA (full length) Variant 2 (antibody, human IgG1, kappa, V domains shown, Humanized J591 (CDR graft), full length; expressed transiently in HEK293 cells, supernatant tested by FACS on LnCap cells; also called humanized anti-PSMA variant 2; Humanized Anti-PSMA Antibody Variant 2) VH: QVQLVQSGAEVKKPGASVKVSCKASGYTFTEYTIHWVRQAPGQRLEWMGNINPNNGGTTYNQKFEDRVTITRDTSASTAYMELSSLRSEDTAVYYCAAGWNFDYWGQGTTLTVSS VL: DIQLTQSPSFLSASVGDRVTITCKASQDVGTAVDWYQQKPGKAPKLLIYWASTRHTGVPSRFSGSGSGTEFTLTISSLQSEDFATYYCQQYNSYPLTFGGGTKVEIKR | – | – | binds |
| Humanized Anti-PSMA (full length) Variant 3 (antibody, human IgG1, kappa, V domains shown, Humanized J591 (CDR graft), full length; expressed transiently in HEK293 cells, supernatant tested by FACS on LnCap cells; also called humanized anti-PSMA variant 3) VH: QVQLVQSGAEVKKPGASVKVSCKASGYTFTEYTIHWVRQAPGQRLEWMGNINPNNGGTTYNQKFEDRVTITRDTSASTAYMELSSLRSEDTAVYYCAAGWNFDYWGQGTTLTVSS VL: DIQLTQSPSFLSASVGDRVTITCKASQDVGTAVDWYQQKPGKAPKLLIYWASTRHTGVPDRFSGSGSGTEFTLTISSLQPEDFATYYCQQYNSYPLTFGGGTKVEIKR | – | – | binds |
| Chimeric Anti-PSMA Antibody ADC, MMAF payload, Non-Cleavable (PEG3) linker (antibody, human IgG1, kappa, V domains shown, para-acetyl phenylalanine (pAF) at position A114 (Kabat numbering; first residue of the heavy chain constant region), conjugated to non-cleavable (PEG3) MMAF drug-linker) VH: EVQLQQSGPELVKPGTSVRISCKTSGYTFTEYTIHWVKQSHGKSLEWIGNINPNNGGTTYNQKFEDKATLTVDKSSSTAYMELRSLTSEDSAVYYCAAGWNFDYWGQGTTLTVSS VL: DIVMTQSHKFMSTSVGDRVSIICKASQDVGTAVDWYQQKPGQSPKLLIYWASTRHTGVPDRFTGSGSGTDFTLTITNVQSEDLADYFCQQYNSYPLTFGAGTKVEIKR | 89.5 | 0.295 | – |
| Chimeric Anti-PSMA Antibody ADC, MMAF payload, Short Cleavable (Valine-Citruline-Acetyl) linker (antibody, human IgG1, kappa, V domains shown, para-acetyl phenylalanine (pAF) at position A114 (Kabat numbering; first residue of the heavy chain constant region), conjugated to short cleavable (Valine-Citruline-Acetyl) MMAF drug-linker) VH: EVQLQQSGPELVKPGTSVRISCKTSGYTFTEYTIHWVKQSHGKSLEWIGNINPNNGGTTYNQKFEDKATLTVDKSSSTAYMELRSLTSEDSAVYYCAAGWNFDYWGQGTTLTVSS VL: DIVMTQSHKFMSTSVGDRVSIICKASQDVGTAVDWYQQKPGQSPKLLIYWASTRHTGVPDRFTGSGSGTDFTLTITNVQSEDLADYFCQQYNSYPLTFGAGTKVEIKR | 94.5 | 0.049 | – |
| Chimeric Anti-PSMA Antibody ADC, MMAF payload, Cleavable (Val-Citruline-PEG1) linker (antibody, human IgG1, kappa, V domains shown, para-acetyl phenylalanine (pAF) at position A114 (Kabat numbering; first residue of the heavy chain constant region), conjugated to cleavable (Val-Citruline-PEG1) MMAF drug-linker) VH: EVQLQQSGPELVKPGTSVRISCKTSGYTFTEYTIHWVKQSHGKSLEWIGNINPNNGGTTYNQKFEDKATLTVDKSSSTAYMELRSLTSEDSAVYYCAAGWNFDYWGQGTTLTVSS VL: DIVMTQSHKFMSTSVGDRVSIICKASQDVGTAVDWYQQKPGQSPKLLIYWASTRHTGVPDRFTGSGSGTDFTLTITNVQSEDLADYFCQQYNSYPLTFGAGTKVEIKR | 89.5 | 0.047 | – |
| Chimeric Anti-PSMA Antibody ADC, MMAE payload, Short Cleavable (Valine-Citruline-Acetyl) linker (antibody, human IgG1, kappa, V domains shown, para-acetyl phenylalanine (pAF) at position A114 (Kabat numbering; first residue of the heavy chain constant region), conjugated to short cleavable (Valine-Citruline-Acetyl) MMAE drug-linker) VH: EVQLQQSGPELVKPGTSVRISCKTSGYTFTEYTIHWVKQSHGKSLEWIGNINPNNGGTTYNQKFEDKATLTVDKSSSTAYMELRSLTSEDSAVYYCAAGWNFDYWGQGTTLTVSS VL: DIVMTQSHKFMSTSVGDRVSIICKASQDVGTAVDWYQQKPGQSPKLLIYWASTRHTGVPDRFTGSGSGTDFTLTITNVQSEDLADYFCQQYNSYPLTFGAGTKVEIKR | 82.5 | 0.425 | – |
| Chimeric Anti-PSMA Antibody ADC, MMAE payload, Non-Cleavable (PEG3) linker (antibody, human IgG1, kappa, V domains shown, para-acetyl phenylalanine (pAF) at position A114 (Kabat numbering; first residue of the heavy chain constant region), conjugated to non-cleavable (PEG3) MMAE drug-linker) VH: EVQLQQSGPELVKPGTSVRISCKTSGYTFTEYTIHWVKQSHGKSLEWIGNINPNNGGTTYNQKFEDKATLTVDKSSSTAYMELRSLTSEDSAVYYCAAGWNFDYWGQGTTLTVSS VL: DIVMTQSHKFMSTSVGDRVSIICKASQDVGTAVDWYQQKPGQSPKLLIYWASTRHTGVPDRFTGSGSGTDFTLTITNVQSEDLADYFCQQYNSYPLTFGAGTKVEIKR | 62.5 | 10.2 | – |
